Tests used:
mouse FcRn [1] = biological target: T1, mouse FcRn (mouse, UniProt Q61559 22-297; P01887 21-119)
T1 sequence (looked up) 1: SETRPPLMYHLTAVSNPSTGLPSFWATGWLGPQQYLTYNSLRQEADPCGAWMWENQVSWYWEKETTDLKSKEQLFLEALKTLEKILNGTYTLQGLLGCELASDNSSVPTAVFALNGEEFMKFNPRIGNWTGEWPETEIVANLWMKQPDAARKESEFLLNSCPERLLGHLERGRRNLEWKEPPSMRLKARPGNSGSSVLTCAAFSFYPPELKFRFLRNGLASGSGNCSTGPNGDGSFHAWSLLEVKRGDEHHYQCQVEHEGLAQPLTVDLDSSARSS
T1 sequence (looked up) 2: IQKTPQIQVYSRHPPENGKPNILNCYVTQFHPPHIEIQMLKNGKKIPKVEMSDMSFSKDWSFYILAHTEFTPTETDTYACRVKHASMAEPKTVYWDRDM

mouse FcRn [2] = biological target: T1, mouse FcRn; experiment: pH 5.6

B1: mouse surrogate Multabody (HD37, mouse ferritin), LALAP Fc (other, not shown: a dimerising Fc or GST; large carriers; small tags and cut ends)
chain 1: KPCPPCKCPAPNAAGGPSVFIFPPKIKDVLMISLSPIVTCVVVDVSEDDPDVQISWFVNNVEVHTAQTQTHREDYNSTLRVVSALPIQHQDWMSGKEFKCKVNNKDLGAPIERTISKPKGSVRAPQVYVLPPPEEEMTKKQVTLTCMVTDFMPEDIYVEWTNNGKTELNYKNTEPVLDSDGSYFMYSKLRVEKKNWVERNSYSCSVVHEGLHNHHTTKSFSRTPGKGGSSGSGSGSTGTSSSGTGTSAGTTGTSASTSGSGSGGGGGSGGGGSAGGTATAGASSGSGSSGSSSSGGTGKPCPPCKCPAPNAAGGPSVFIFPPKIKDVLMISLSPIVTCVVVDVSEDDPDVQISWFVNNVEVHTAQTQTHREDYNSTLRVVSALPIQHQDWMSGKEFKCKVNNKDLGAPIERTISKPKGSVRAPQVYVLPPPEEEMTKKQVTLTCMVTDFMPEDIYVEWTNNGKTELNYKNTEPVLDSDGSYFMYSKLRVEKKNWVERNSYSCSVVHEGLHNHHTTKSFSRTPGKSRASTASSASSGGGGGGSGGSGGSGGSMTSQIRQNYSTEVEAAVNRLVNLHLRASYTYLSLGFFFDRDDVALEGVGHFFRELAEEKREGAERLLEFQNDRGGRALFQDVQKPSQDEWGKTQEAMEAALAMEKNLNQALLDLHALGSARTDPHLCDFLESHYLDKEVKLIKKMGNHLTNLRRVAGPQPAQTGAPQGSLGEYLFERLTLKHD
chain 2: MTSQIRQNYSTEVEAAVNRLVNLHLRASYTYLSLGFFFDRDDVALEGVGHFFRELAEEKREGAERLLEFQNDRGGRALFQDVQKPSQDEWGKTQEAMEAALAMEKNLNQALLDLHALGSARTDPHLCDFLESHYLDKEVKLIKKMGNHLTNLRRVAGPQPAQTGAPQGSLGEYLFERLTLKHD
notes: also called mLALAP MB; Fc-modified MB (LALAP mutation)
kon (mouse FcRn [1]): 2.4e+06 M⁻¹ s⁻¹ | Kd (mouse FcRn [2]): < 1 pM | koff (mouse FcRn [2]): < 1e-07 s⁻¹
